“Also recorded” adds a separate entry of the source.
B1: sHIPqp (protein)
chain: SMKQDQLIVEKMEQTYEAFSPKLANLIEALDAFKEHYEEYATLRNFYSSDEWFRLANQPWDDIPSGVLSEDLLFDMIGDHNQLAADIADLAPIMAKHM
modifications: left off: His-tag, N-terminal, cleaved
B2: HRG: abundant plasma glycoprotein of approximately 60 kDa; recombinant His-tagged HRG (protein)
chain: VSPTDCSAVEPEAEKALDLINKRRRDGYLFQLLRIADAHLDRVENTTVYYLVLDVQESDCSVLSRKYWNDCEPPDSRRPSEIVIGQCKVIATRHSHESQDLRVIDFNCTTSSVSSALANTKDSPVLIDFFEDTERYRKQANKALEKYKEENDDFASFRVDRIERVARVRGGEGTGYFVDFSVRNCPRHHFPRHPNVFGFCRADLFYDVEALDLESPKNLVINCEVFDPQEHENINGVPPHLGHPFHWGGHERSSTTKPPFKPHGSRDHHHPHKPHEHGPPPPPDERDHSHGPPLPQGPPPLLPMSCSSCQHATFGTNGAQRHSHNNNSSDLHPHKHHSHEQHPHGHHPHAHHPHEHDTHRQHPHGHHPHGHHPHGHHPHGHHPHGHHPHCHDFQDYGPCDPPPHNQGHCCHGHGPPPGHLRRRGPGKGPRPFHCRQIGSVYRLPPLRKGEVLPLPEANFPSFPLPHHKHPLKPDNQPFPQSVSESCPGKFKSGFPQVSMFFTHTFPK
modifications: left off: His-tag, end not stated, kept
notes: abundant plasma glycoprotein of approximately 60 kDa; recombinant His-tagged HRG

Assays:
[1] = Analytical ultracentrifugation, sedimentation velocity (oligomeric state in solution); type: physicochemical; conditions: 20°C, 50000 rpm, Beckman XL-I, 20 mM MES, pH 5.5, SEDFIT c(S)
Procedure: Sedimentation velocity experiments were performed at 20°C and 50000 rpm using a Beckman XL-I instrument. Samples containing either sHIPwt or sHIPqp were in 20 mM MES buffer (2-(N-morpholino) ethanesulfonic acid), pH 5.5. The data were analyzed with SEDFIT using a continuous c (S) distribution (Schuck, [2000]). HYDROPRO (Ortega et al., [2011]) was used to calculate the theoretical sedimentation coefficient using the PDB IDs 4MER (sHIPwt) and 4PZ1 (sHIPqp), respectively.
Figure 2 Sedimentation velocity experiments for protein sHIP. The dotted lines indicate the theoretical sedimentation coefficient for a tetramer and a dimer respectively calculated using HYDROPRO and the structural coordinates for protein sHIPwt (PDB ID: 4MER) and protein sHIPqp (PDB ID: 4PZ1). The wild-type sHIPwt is shown in black, and the sHIPqp mutant in red respectively.

[2] = test system: histidine-rich glycoprotein (HRG); assay: Interaction of the sHIP mutant with intact HRG and histidine-rich repeats; type: binding; conditions: stated in abstract; no separate data shown
[3] = test system: histidine-rich glycoprotein (HRG); assay: Antimicrobial assay: inhibition of the bactericidal activity of HRG against S. pyogenes AP1; type: cell-based; conditions: recombinant His-tagged HRG 0.45 μM, S. pyogenes AP1 2 × 10^6 cfu/ml, 10 mM MES, pH 5.5, 5 mM glucose, various sHIP concentrations, 40 min, 37°C, cfu counts, at least three repeats, mean ± SD (values only in Figure 3)
Procedure: The S. pyogenes strain AP1 (40/58), was from the World Health Organization Collaborating Centre for Reference and Research on Streptococci, Prague, Czech Republic. The bacteria were cultivated in THY (Todd-Hewitt broth (Difco) supplemented with 0.2% yeast extract (Oxoid) at 37°C and 5% CO2 until reaching mid-log phase (OD 620 nm approximately 0.4). The bacterial cells were washed and resuspended in 10 mM Tris-HCl, pH 7.5, containing 5 mM glucose, to a concentration of 2 × 10^9 cfu (colony forming unit)/ml. Subsequently, the bacteria were diluted to a concentration of 2 × 10^6 cfu/ml in 10 mM MES buffer, pH 5.5, containing 5 mM glucose. Fifty microliters of the bacterial solution was incubated with recombinant His-tagged HRG (Creative Biomart) at a concentration of 0.45 μM together with various concentrations of protein sHIPwt or protein sHIPqp for 40 min at 37°C. Serial dilutions of the incubation mixtures were plated on TH agar, plates were incubated over night at 37°C and the number of cfu's were determined.
Experiments were repeated at least three times and mean values ± SD are shown.

sHIP = conditions: previous studies; ref Wisniewska et al., 2014; cited from earlier work
Description: In a recent study, we quantitatively analyzed and compared S. pyogenes proteins in the growth medium of a strain that is virulent to mice (AP1), with a non-virulent strain (SF370).

S. pyogenes = conditions: ref Shannon et al., 2010; cited from earlier work
[4] = ref Rydengård et al., 2007; cited from earlier work

Molecule | oligomeric state in solution [1] | oligomeric state in solution ([1]; listed as sHIP mutant) | interaction with intact HRG and the histidine-rich repeats in HRG [2] | inhibition of the bactericidal activity of HRG [3] | inhibition of the bactericidal activity of HRG ([3]; listed as sHIP mutant) | affinity for sHIP (in words) (sHIP) | antibacterial activity against S. pyogenes (S. pyogenes) | antimicrobial potency [4]
B1 | dimers in solution | only as dimers in solution | interacts with intact histidine-rich glycoprotein (HRG) and the histidine-rich repeats in HRG | inhibits the bactericidal activity of HRG to the same or even higher extent that wildtype sHIP; also recorded: inhibits the bactericidal activity of HRG more efficiently than protein sHIP wildtype; also recorded: maintain its full inhibitory capacity of HRG in antimicrobial assays | inhibits their antibacterial activity to the same or even higher extent as compared to the wild type protein sHIP |  |  | 
B2 |  |  |  |  |  | nanomolar to micromolar affinity; also recorded: high affinity | antibacterial activity including activity against S. pyogenes | broad antimicrobial potency

Reference: article PMC4742562, “Structure and Interactions of a Dimeric Variant of sHIP, a Novel Virulence Determinant of Streptococcus pyogenes” (Frontiers in Microbiology, 2016)
